The record followed here is paper PMC2705653 (Molecular cell, 2009).

The target in test [1] is T1, Chp1 chromodomain (residues 15-75) for crystallization (S. pombe, UniProt Q10103 15-75).
T1 sequence (looked up): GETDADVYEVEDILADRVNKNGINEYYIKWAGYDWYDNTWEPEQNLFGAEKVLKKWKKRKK
Kind of test: crystal structure.

The target in another test is T2, Swi6 V82E (S. pombe, UniProt P40381 1-328, V82E).
T2 sequence (looked up): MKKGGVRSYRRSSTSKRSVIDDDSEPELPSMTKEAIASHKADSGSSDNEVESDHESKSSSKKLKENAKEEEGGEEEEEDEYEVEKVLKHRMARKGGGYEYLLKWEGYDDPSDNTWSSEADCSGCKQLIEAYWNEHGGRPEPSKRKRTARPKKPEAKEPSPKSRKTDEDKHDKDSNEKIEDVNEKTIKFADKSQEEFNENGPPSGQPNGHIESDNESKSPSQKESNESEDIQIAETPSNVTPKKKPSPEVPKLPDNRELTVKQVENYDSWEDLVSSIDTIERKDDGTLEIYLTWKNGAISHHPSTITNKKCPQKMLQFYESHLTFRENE
Kind of test: fluorescence polarisation. On the technique in general: Fluorescence polarisation rises when a labelled molecule tumbles more slowly, as on binding a larger partner.

For a further test, the target named is T3, Swi6 E80V V82E (S. pombe, UniProt P40381 1-328, E80V | V82E).
T3 sequence (looked up): T2 sequence (looked up) with E80V
Kind of test: fluorescence polarisation.

In test [2] the target is Clr4 chromodomain (residues 1-70) (S. pombe, UniProt O60016 1-70). Kind of test: fluorescence polarisation.
Test [3] addresses T4, Chp1 chromodomain E23V,V24M (S. pombe, UniProt Q10103 9-76, E23V | V24M).
T4 sequence (looked up): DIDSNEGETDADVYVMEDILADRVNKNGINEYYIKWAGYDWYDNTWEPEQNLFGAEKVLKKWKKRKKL
Kind of test: fluorescence polarisation.

Test [4] deals with T5, Swi6, full length, wild type (S. pombe, UniProt P40381 1-328).
T5 sequence (looked up): T2 sequence (looked up) with E82V
Kind of test: fluorescence polarisation.

The target in test [5] is T6, H3K9me3 peptide (isothermal titration calorimetry) (trimethyl-lysine at 9).
T6 chain: ARTKQTARKSTGGKAY
Kind of test: ITC. On the technique in general: ITC needs no label: the signal is the heat of the interaction.

Residue numbers refer to the chain shown, from its start.

Clr4 chromodomain (residues 1-70), sequence (O60016 1-70): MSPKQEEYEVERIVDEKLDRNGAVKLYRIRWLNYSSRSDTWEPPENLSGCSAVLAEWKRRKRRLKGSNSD

On to ARTKQTARKSTGGKAY (trimethyl-lysine at 9) [H3K9me3 peptide (crystallization)], for which the binding result in test [1] is “binds”.
Broadly, the Kd is the constant that tells how readily two partners part at equilibrium. The low end stands for higher affinity, the high end for lower affinity. Regarding ARTKQTARKSTGGKAY (trimethyl-lysine at 9) [H3K9me3 peptide (fluorescence polarization)], the Kd with Swi6 V82E was found to be 1040 ± 100 nM; with Swi6 E80V V82E it was 610 ± 120 nM; in test [2], 600 ± 80 nM; in test [3], 14700 nM; in test [4], 3340 ± 550 nM.
ARTKQTARKSTGGKAY (dimethyl-lysine at 9; fluorescein (position not given)) [fluorescein labeled H3K9me2 peptide]: the Kd stood at 2190 ± 130 nM with Swi6 V82E, 1070 ± 30 nM in the test with Swi6 E80V V82E, 2860 ± 270 nM in test [2] and 10300 ± 1690 nM in test [4].

B1: Chp1 chromodomain, wild type (for binding studies) (domain or fragment, S. pombe, UniProt Q10103 9-76, looked up)
chain: T4 sequence (looked up) with V15E, M16V
Turning to B1, the “fold higher affinity than Swi6” value in test [5] was not below 5 fold.
